According to patent US20150185222A1 (TORAY INDUSTRIES, published 2015):

How the values were obtained:
[1] = target: T1, polypeptide consisting of the amino acid sequence of SEQ ID NO: 66 (human); experiment: trypsin or chymotrypsin digestion of antibody-CAPRIN-1 complex, protein G Sepharose, MS/MS of recovered peptides
T1 peptide: QQPQAASPSVPE
Method: The cancer cell surface-reactive mouse-chicken chimeric anti-human CAPRIN-1 monoclonal antibody #12 obtained in the paragraph (4) was used to identify a CAPRIN-1 epitope region recognized thereby. 100 μg of recombinant CAPRIN-1 proteins was dissolved in a protein inhibitor-free dissolving buffer and reacted with the mouse-chicken chimeric anti-human CAPRIN-1 monoclonal antibody #12. To this solution, a digestive enzyme trypsin or chymotrypsin was added, followed by digestion reaction at a suitable temperature. After the reaction, a protein G Sepharose carrier was added thereto, then reacted, and precipitated by centrifugation operation. After removal of the supernatant, the carrier was washed with a dissolving buffer and PBS and dissolved in 0.1% formic acid, and the supernatant was recovered. The recovered supernatant sample was applied to a reverse-phase column (HLB Extraction Cartridge (Waters-OASIS)) to obtain an antibody-free sample solution. The obtained sample was subjected to reverse-phase liquid chromatography (Chromatography Nanosytem (KYA Technologies Corp.)) to recover a solution containing only peptides. The solution was introduced to a tandem-type mass spectrometer Quadrupole-TOF Mass Spectrometer (Waters-MicroMass) and analyzed by MS/MS to detect the peptides contained in the sample. […]

[2] = target: human CAPRIN-1 expressed on the surface of human cancer cells and in human cancer tissues (human) (UniProt Q14444); experiment: flow cytometry, 2 µg antibody on 8 human breast cancer cell lines (ZR75-1, MCF7, T47D, SK-BR-3, MDA-MB-157, BT-20, MDA-MB-231V, MRK-nu-1); control mouse IgG1
[3] = target: human CAPRIN-1 expressed on the surface of human cancer cells and in human cancer tissues (human) (UniProt Q14444); experiment: flow cytometry on human cancer cell lines Caki-1, Caki-2, A498, T24, SKOV3, QG56, PC3, Hela, HT1080, T98G, U87MG, MNK28, Lovo, Capan-2, MIAPaCa-2, Panc-1, BxPC-3; control mouse IgG1

binding result [1]: binds | rate of increase in mean fluorescence intensity (MFI) over control [2]: > 35% | rate of increase in mean fluorescence intensity (MFI) over control [3]: > 35%
B1: mouse-chicken chimeric anti-human CAPRIN-1 monoclonal antibody #12 (antibody, mouse IgG1, V domains shown)
VH: AVTLDESGGGLQMSRGGLSLVCKASGFDFSSYQMNWIRQAPGKGLEFVAAINKFGNSTGHGAAVKGRVTISRDNGQSTVRLQLNNLRAEDTAIYFCTKHAYGYCGSGTWCAAGEIDAWGHGTEVIVSS
VL: QAASTQPSSVSANPGETVEITCSGGGSYSYGWFQQKSPGSAPVTVIYYNNKRPSDIPSRFSGSKSGSTGTLTITGVQADDEAVYYCGSGDSTDTAVFGAGTTLTVLG
notes: Variable regions of chicken antibody #11 with the constant regions of mouse IgG1 (H chain and L chain constant regions); produced in CHO-K1; also called mouse-chicken anti-human CAPRIN-1 monoclonal antibody (#12)
